Assay results from doi:10.1101/2022.06.13.496020 (bioRxiv, 2022).

Molecular target: TSH β-subunit (human, UniProt P01222 21-132, N-linked glycan (one))
Experiment: cryo-EM structure

Sequence of TSH β-subunit (P01222 21-132): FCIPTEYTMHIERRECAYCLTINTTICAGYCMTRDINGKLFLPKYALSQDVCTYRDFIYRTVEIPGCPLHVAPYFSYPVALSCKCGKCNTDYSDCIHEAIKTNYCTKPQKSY

- binding result: binds
B1: TSH α-subunit (natural protein)
chain: not shown
modifications: N-linked glycans (two, one at N52)
